In US20130123350, “NUCLEIC ACID MOLECULE CAPABLE OF BINDING TO c-MET AND USE THEREOF” (KANAGAWA PREFECTURAL HOSPITAL ORGANIZATION, published 2013):

B1: g10 (ssRNA)
RNA: GGGACGCUCACGUACGCUAAACACAGCUCUGAUGGUCGUGAUUAGGUUGACCACCUACCUUCAGUGCCUGGACGUGCAGU
B2: g24 (ssRNA)
RNA: GGGACGCUCACGUACGCUAAGAGUUGUCGCACAGCGACUCGAAAAUAAUCUGUCCGACACUCAGUGCCUGGACGUGCAGU
B3: g15 (ssRNA)
RNA: GGGACGCUCACGUACGCUAAGACGCGGGCCACCGGCUAGCGACGGGUGGUAAAGGGCUUGUCAGUGCCUGGACGUGCAGU
B4: g32 (ssRNA)
RNA: GGGACGCUCACGUACGCUAAACAAGACCGGGAUGGGGGUUGGUCACACACAAAGACUGAAUCAGUGCCUGGACGUGCAGU
B5: g25 (ssRNA)
RNA: GGGACGCUCACGUACGCUAAUAGCAACAGUUCCCAGAGGUGAUCAGGCAGCCUUAAGACAUCAGUGCCUGGACGUGCAGU
B6: g19 (ssRNA)
RNA: GGGACGCUCACGUACGCUAAGUAGCCGUGAUUGGGUUGGCUGCCCACAAUUAUCCAGGACUCAGUGCCUGGACGUGCAGU
B7: g36 (ssRNA)
RNA: GGGACGCUCACGUACGCUAACUUGAUUGGUCGCAACCGGACAAGGACGGGUUGAUGCAGUUCAGUGCCUGGACGUGCAGU
B8: g18 (ssRNA)
RNA: GGGACGCUCACGUACGCUAAGGCACCCUAUAGGAUUCAGCCCCUAACCCGGUGUUGUGAAUCAGUGCCUGGACGUGCAGU
B9: g16 (ssRNA)
RNA: GGGACGCUCACGUACGCUAACCGCUACCGGGUGCAACGGGUAGACUGUAACCAGGUGAUAUCAGUGCCUGGACGUGCAGU
B10: g23 (ssRNA)
RNA: GGGACGCUCACGUACGCUAAAUGGGAGUGCGCCUCGGCUCUAACGGAGGUAUGCACGUCAUCAGUGCCUGGACGUGCAGU
B11: g31 (ssRNA)
RNA: GGGACGCUCACGUACGCUAAAGAGUCUAUGCCGUGAGUGAGGGUGGCGCCUCGACUGCCAUCAGUGCCUGGACGUGCAGU
B12: g21 (ssRNA)
RNA: GGGACGCUCACGUACGCUAACCUUGGUGUCAUCCGACCAAAUUAGAACGGGAUGAGGAAGUCAGUGCCUGGACGUGCAGU
B13: g37 (ssRNA)
RNA: GGGACGCUCACGUACGCUAAGGUUUGCUCCGACCGACUAAAGGGAGCCUCUGUCACGAGUUCAGUGCCUGGACGUGCAGU
B14: g11 (ssRNA)
RNA: GGGACGCUCACGUACGCUAAGUUUAGGUGGCAUCGACCUUCAUGAAACGGGUGCACAGGCUCAGUGCCUGGACGUGCAGU
B15: g27 (ssRNA)
RNA: GGGACGCUCACGUACGCUAACCUAUGCAGACCGACAUCCGGGUAUACGGGAUGAUGCGACUCAGUGCCUGGACGUGCAGU
B16: g29 (ssRNA)
RNA: GGGACGCUCACGUACGCUAAACGAGCCGUGAUUGGGUUGGCAACCCUGCUUAUGUGAGGAUCAGUGCCUGGACGUGCAGU
B17: g30 (ssRNA)
RNA: GGGACGCUCACGUACGCUAAAAAUUGCCGGGAUCUGGUGUGGCGACCAUGCGGCGUGCAUUCAGUGCCUGGACGUGCAGU
B18: g14 (ssRNA)
RNA: GGGACGCUCACGUACGCUAAUCAUCGGGACAUCGGAUGGAACGGGUGUCAAGAAGCGUGUUCAGUGCCUGGACGUGCAGU
B19: g12 (ssRNA)
RNA: GGGACGCUCACGUACGCUAACGCGGCCAUCCGGCGUUUGGAACGGGAUGUACACCUGACAUCAGUGCCUGGACGUGCAGU
B20: g33 (ssRNA)
RNA: GGGACGCUCACGUACGCUAAACUUUUGGCGAUCUCCGGCCGGAUACGGGAGAACGAGGUAUCAGUGCCUGGACGUGCAGU
B21: g35 (ssRNA)
RNA: GGGACGCUCACGUACGCUAAGAUUUGUGUGAUACCCGACACUCUAACGGGGUAGCAGGGCUCAGUGCCUGGACGUGCAGU
B22: g26 (ssRNA)
RNA: GGGACGCUCACGUACGCUAAGCUCCACCAGGUGUAGCUAGCCUGUAGACAUCAGUAGCAUCAGUGCCUGGACGUGCAGU
B23: g17 (ssRNA)
RNA: GGGACGCUCACGUACGCUAAAGUGAUGGCCGGCUGGAGAAACGGGCCACUCGAUCCAGGUCAGUGCCUGGACGUGCAGU
B24: g13 (ssRNA)
RNA: GGGACGCUCACGUACGCUAAUCACUCGGACAGCCGGAGCGAAACGGGCUGUGUAAGACUGUCAGUGCCUGGACGUGCAGU
B25: g34 (ssRNA)
RNA: GGGACGCUCACGUACGCUAAUUUGGUGAAUUCCGACCAUUUUGCAAACGGGAUACGGGACUCAGUGCCUGGACGUGCAGU
B26: g20 (ssRNA)
RNA: GGGACGCUCACGUACGCUAAACGUUGUGGCGAACUUCGGCCCGAACGGGAGUAACUGCAUCAGUGCCUGGACGUGCAGU
B27: g22 (ssRNA)
RNA: GGGACGCUCACGUACGCUAAGCGUGUUUCUUCAUUUCGACGCUGGCCAACGGAAAUGCAAUCAGUGCCUGGACGUGCAGU
B28: g28 (ssRNA)
RNA: GGGACGCUCACGUACGCUAACCUGGGGGUUCCGCAGGAAUCGGGAACUAGAUUGGUGGUCUCAGUGCCUGGACGUGCAGU

molecular target: rec-cMet (Recombinant Human HGF R/c-MET/Fc Chimera) (Homo sapiens, UniProt P08581;P08581 SEQ:1-283,SEQ:1-625); assay: SPR; rec-cMet 100 nM; settings: tags: C-terminal HIEGRMD linker, human IgG Fc (100-330), 6xHis; R&D Systems; chain copies: 2 (inferred, Fc chimera)
Sequence (P08581 25-307, stated change not applied, chain 1 of 2): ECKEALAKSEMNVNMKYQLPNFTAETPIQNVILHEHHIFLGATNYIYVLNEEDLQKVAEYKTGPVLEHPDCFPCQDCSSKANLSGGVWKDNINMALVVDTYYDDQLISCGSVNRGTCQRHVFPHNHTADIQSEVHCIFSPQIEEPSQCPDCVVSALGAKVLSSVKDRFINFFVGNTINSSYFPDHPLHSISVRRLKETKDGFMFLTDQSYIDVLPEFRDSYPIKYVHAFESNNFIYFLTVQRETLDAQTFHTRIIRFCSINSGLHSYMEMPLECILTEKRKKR
Sequence (P08581 308-932, stated change not applied, chain 2 of 2): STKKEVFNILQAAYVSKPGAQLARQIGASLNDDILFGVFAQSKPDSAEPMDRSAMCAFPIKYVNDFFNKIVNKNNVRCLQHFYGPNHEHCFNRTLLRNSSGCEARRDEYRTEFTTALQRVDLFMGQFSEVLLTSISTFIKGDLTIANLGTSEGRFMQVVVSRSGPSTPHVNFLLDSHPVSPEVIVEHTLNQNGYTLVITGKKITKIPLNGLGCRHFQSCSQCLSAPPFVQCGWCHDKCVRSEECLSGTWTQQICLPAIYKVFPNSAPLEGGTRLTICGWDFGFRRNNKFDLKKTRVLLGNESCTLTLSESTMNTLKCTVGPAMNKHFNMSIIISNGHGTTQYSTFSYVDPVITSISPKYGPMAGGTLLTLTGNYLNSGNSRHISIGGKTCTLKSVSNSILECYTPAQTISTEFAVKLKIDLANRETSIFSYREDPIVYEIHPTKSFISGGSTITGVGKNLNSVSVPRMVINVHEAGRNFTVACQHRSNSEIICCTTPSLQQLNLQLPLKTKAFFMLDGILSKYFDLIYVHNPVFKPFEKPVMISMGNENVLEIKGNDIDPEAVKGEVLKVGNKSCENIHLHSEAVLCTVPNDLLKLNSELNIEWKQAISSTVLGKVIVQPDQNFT
Experimental: Using these truncated RNA aptamers, the binding ability thereof to the rec-cMet was examined. The binding ability was analyzed using BIACORE (registered trademark) X (GE Healthcare) in accordance with its instructions for use, with the concentration of the rec-cMet being set to 175 nmol/L. Also, the binding ability of each of the RNA aptamers g1 and g1-trA was examined in the same manner. As a comparative example, the 40N was used, and the binding ability thereof was examined in the same manner.
The binding ability of each of the RNA aptamers to the rec-cMet was examined in the same manner as in Example 5, except that the above RNA aptamers were used. The concentration of the rec-cMet was set to 100 nmol/L. With the time point at which the introduction of the rec-cMet to the chip was started being 0 seconds, introduction of a buffer was started 60 seconds later.

Binding result, binds:
B1, B2, B3, B4, B5, B6, B7, B8, B9, B10, B11, B12, B13, B14, B15, B16, B17, B18, B19, B20, B21, B22, B23, B24, B25, B26, B27, B28
